Assay results published in US20250145697A1 (WASHINGTON UNIVERSITY, published 2025).

Tests used:
[1] = target: T1, heat-induced aggregates of ApoE4 (human, UniProt P02649 19-317); assay: ELISA: total ApoE4 incubated at 40 C for 24 h loaded on the plate, HJ156 titrated, OD650
T1 construct: mature; aggregated state of the recombinant protein; also called ApoE4 incubated at 40 C for 24 hr; heat-treated ApoE4

[2] = target: T1, heat-induced aggregates of ApoE4; assay: ELISA: ApoE4 incubated at 40 C for 24 h, no denaturant, on the plate, HJ156 titrated, OD650
Description: 1: untreated ApoE4. 2: ApoE4 that has been incubated at 40° C. for 24 hr. Supernatant(S) and pellet (P) from ultracentrifugation were resolved on SDS-PAGE and stained by Coomassie blue. (D) Binding of HJ156 to different preparations of ApoE4 loaded at the same concentration on the ELISA plate. Sup of untreated: Supernatant fraction of untreated ApoE4 from ultracentrifugation. Sup/Pel of 24h 40C: Supernatant/pellet fraction of ApoE4 incubated at 40° C. for 24 hour. (E) Binding of HJ156 to untreated and 40° C. incubated ApoE4 with and without denaturation by 1% SDS or 4M guanidine HCl.
In order to test whether HJ151 and HJ156 bind to some form of ApoE in the brain, unfixed frozen brain sections from APPPS1/APOE4 or APPPS1/EKO mice using HJ151 and HJ156 (FIG. 38A). The presence of Aβ plaques was confirmed with Aβ immunostaining using anti-Aβ antibody HJ3.4 on the sections from the same brain. […] Next, the ability of HJ156 to bind to an aggregated form of ApoE induced by incubation at 40° C. was queried. The binding of untreated ApoE to HJ151, HJ153 or HJ156 was compared to the binding of ApoE incubated at 40° C. to HJ151, HJ153 or HJ156. HJ153 bound to untreated ApoE or ApoE incubated at 40° C. similarly while HJ151 and HJ156 preferentially bound to ApoE incubated at 40° C. (FIG. 38B). […] Solubilization of the ApoE aggregates reduced their binding to HJ156. […]

murine ApoE = target: T2, murine ApoE (mouse, UniProt P08226 19-311); assay: Western blot of mouse brain lysates
T2 sequence (looked up): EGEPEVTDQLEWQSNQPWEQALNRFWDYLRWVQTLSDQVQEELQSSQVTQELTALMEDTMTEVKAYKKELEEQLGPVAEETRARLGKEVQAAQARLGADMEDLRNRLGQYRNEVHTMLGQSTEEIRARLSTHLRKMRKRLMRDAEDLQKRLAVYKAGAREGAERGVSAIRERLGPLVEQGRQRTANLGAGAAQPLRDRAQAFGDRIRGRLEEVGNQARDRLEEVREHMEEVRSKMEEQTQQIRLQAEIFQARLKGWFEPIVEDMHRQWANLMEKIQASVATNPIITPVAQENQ
Source text: Brain lysates from apoE KO mice or mice expressing human apoE3, human apoE4 or murine apoE were immunoblotted with HJ151, HJ152, HJ153, and HJ154. A commercial apoE antibody GA-50 was used as a positive control.

[3] = target: T3, recombinant alipidated human ApoE2 (human, UniProt P02649 19-317); assay: ELISA: untreated ApoE2 coated at 0.5 ug/ml, antibody titrated, HRP goat anti-mouse IgG, OD650
T3 construct: mature; full length recombinant protein made in E. coli or bought
T3 sequence (P02649 19-317 R176C): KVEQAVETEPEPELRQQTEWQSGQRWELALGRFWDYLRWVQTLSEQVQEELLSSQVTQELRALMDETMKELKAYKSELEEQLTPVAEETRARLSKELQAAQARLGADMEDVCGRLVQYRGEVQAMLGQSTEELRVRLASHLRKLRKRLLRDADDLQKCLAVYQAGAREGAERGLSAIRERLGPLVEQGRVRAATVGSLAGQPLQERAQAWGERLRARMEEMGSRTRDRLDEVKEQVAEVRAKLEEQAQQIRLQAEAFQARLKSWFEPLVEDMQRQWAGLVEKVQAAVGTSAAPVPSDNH
Description: (§1) The aggregated ApoE was induced by incubating ApoE at 1 mg/ml concentration at 40° C. for 24 hours. The aggregates then were recovered in the pellet fraction following ultracentrifugation at 186,000 g for 1 hour. For ELISA, the untreated ApoE or heat-induced aggregates of ApoE were coated directly to ELISA plates at 0.5 μg/ml overnight at 4° C. After three washes with PBS, the wells were blocked with 1% BSA-PBS for 1 hour at room temperature with shaking at 500 rpm. The blocked wells were washed once with PBS and subsequently loaded with antibodies at serial concentrations (starting at 100 nM with 5-fold dilutions thereafter). Bound antibodies were detected with HRP-labeled goat anti-mouse IgG (Jackson Immunoresearch) and visualized with TMB substrate at OD₆₅₀ (reaction stopped with BioFX stop solution).

[4] = target: T4, recombinant alipidated human ApoE3 (human, UniProt P02649 19-317); assay: ELISA: untreated ApoE3 coated at 0.5 ug/ml, antibody titrated, HRP goat anti-mouse IgG, OD650
T4 construct: mature; full length recombinant protein made in E. coli or bought
T4 sequence (P02649 19-317): as the sequence (P02649 19-317 R176C) above, with C158R counted along it
Description: as §1

[5] = target: T5, heat-induced aggregates of ApoE2 (human, UniProt P02649 19-317); assay: ELISA: pellet of heat-aggregated ApoE2 coated at 0.5 ug/ml, antibody titrated, HRP goat anti-mouse IgG, OD650
T5 construct: mature; aggregated state of the recombinant protein; also called heat treated ApoE2
T5 sequence (P02649 19-317 R176C): as the sequence (P02649 19-317 R176C) above
Description: as §1

T1 sequence (P02649 19-317 C130R): as the sequence (P02649 19-317 R176C) above, with C112R, C158R counted along it

B1: HJ156 (antibody, V domains shown)
VH: QVQLQQSGPELVKPGASVKISCKASGYIFTDYYINWVKRRPGQGLEWIGWIFPGSGVSYYNEQFKGKATLTVDKPSNTAYIFLSRLTSEDSAVYFCARYYSSSPFAYWGQGTLVTVSA
VL: DVLMTQTPLSLPVSLGDQASISCRSSQNIIHSNGNTYLEWFLQRPGQSPELLIYKVSNRFSGVPDRFSGSGSGTDFTLKISRVEAEDLGVYYCFQGSHVPYTFGGGTKLEIKR
notes: murine monoclonal antibody from hybridoma; also called HJ156B (biotinylated)
- EC50 (read off the curve) [1]: ~0.1 nM
- EC50 (read off the curve) [2]: ~0.1 nM

B2: HJ154 (antibody, V domains shown)
VH: QVQLQQPGTEFVMSGASVMLSCKASGYIFTNYWLHWVKQRPGHGLEWIGEIDPSDSYSICNDNFKGKSTLTVDKSSSTAYMQLSSLTSEDSAVYYCAGSLGRVGLAYWGQGTLVTVST
VL: QIVLTQSPAIMSASPGEKVTMSCSASSSVSNMYWYQQKPGSSPKSWIYRTSNLASGVPARFSGSGSGTSYSLTISNMEAEDAATYYCQHYQNYPLTFGAGTKLELKR
notes: murine monoclonal antibody from hybridoma; also called HJ154B (biotinylated)
- binding result (murine ApoE): no binding
- EC50 (read off the curve) [3]: ~0.2 nM
- EC50 (read off the curve) [4]: ~0.5 nM
- EC50 (read off the curve) [5]: 0.16 to 0.2 nM
